Data reported in patent US9725708B2, “Methods of modulating ubiquitin ligase activity” (Board of Supervisors of Louisiana State University and …, priority 2012, dated 2017).
“Also recorded” adds a separate entry of the source.

Key:
E6APF727D = biological target: T1, E6APF727D (Homo sapiens, UniProt Q05086, F750D); assay: E6 rescue of 125I-polyubiquitin chain formation by E6APF727D; format: biochemical; settings: 20 nM E6 protein
T1 construct: made in house; host or cells: E. coli
T1 sequence (Q05086 1-872 isoform Q05086-3 F747D): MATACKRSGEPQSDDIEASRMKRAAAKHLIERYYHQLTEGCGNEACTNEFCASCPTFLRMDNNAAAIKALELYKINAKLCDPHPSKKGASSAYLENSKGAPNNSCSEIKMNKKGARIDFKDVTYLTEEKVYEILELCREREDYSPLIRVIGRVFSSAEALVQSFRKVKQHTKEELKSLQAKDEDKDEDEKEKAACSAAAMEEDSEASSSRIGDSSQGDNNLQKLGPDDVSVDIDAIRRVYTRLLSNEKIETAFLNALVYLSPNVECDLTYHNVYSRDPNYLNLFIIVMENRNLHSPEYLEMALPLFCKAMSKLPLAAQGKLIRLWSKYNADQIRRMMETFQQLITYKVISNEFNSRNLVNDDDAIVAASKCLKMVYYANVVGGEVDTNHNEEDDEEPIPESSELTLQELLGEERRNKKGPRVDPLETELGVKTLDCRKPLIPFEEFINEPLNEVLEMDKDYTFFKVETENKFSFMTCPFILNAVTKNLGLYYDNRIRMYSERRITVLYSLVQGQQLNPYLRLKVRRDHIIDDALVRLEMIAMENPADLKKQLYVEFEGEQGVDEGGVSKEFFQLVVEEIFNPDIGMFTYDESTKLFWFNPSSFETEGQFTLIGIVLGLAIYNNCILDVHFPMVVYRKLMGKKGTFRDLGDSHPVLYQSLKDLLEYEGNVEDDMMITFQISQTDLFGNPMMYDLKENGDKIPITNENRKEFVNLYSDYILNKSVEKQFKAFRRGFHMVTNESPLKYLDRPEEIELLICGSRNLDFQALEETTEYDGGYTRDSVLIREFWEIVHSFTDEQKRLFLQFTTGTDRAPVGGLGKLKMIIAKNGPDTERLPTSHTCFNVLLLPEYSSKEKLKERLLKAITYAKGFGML
Protocol: (§1) E6AP-catalyzed ^125I-Ubiquitin Conjugation Assay: The E3 ligase activity of recombinant E6AP ligase was quantitated in kinetic assays under initial velocity conditions (Ronchi et al., (2013) J. Biol. Chem. 288, 10349-10360, Ronchi & Haas (2012) Methods Mol. Biol. 832: 197-218). Rates of E6AP-catalyzed ^125I-polyubiquitin chain formation were measured at 37° C. in incubations of 25-μl final volume containing 50 mM Tris-HCl (pH 7.5), 1 mM ATP, 10 mM MgCl2, 1 mM DTT, 10 mM creatine phosphate, 1 IU of creatine phosphokinase, 5 μM ^125I-ubiquitin (approximately 1.5×10^4 cpm/pmol), 50 nM human Uba1, and the indicated concentrations of UbcH7 and E6AP ligase (Siepmann et al., (2003) J. Biol. Chem. 278: 9448-9457; Baboshina et al., (2001) J. Biol. Chem. 276: 39428-39437). […]
(§2) Polyubiquitin chain formation was measured by excising lanes between the top of the resolving gel and the top of the stacker gel, representing anchored and free ^125I-polyubiquitin chains, respectively, and quantitating associated ^125I-ubiquitin by γ-counting. Absolute rates of ^125I-polyubiquitin chain formation were calculated from the associated radioactivity and the corrected specific radioactivity for ^125I-ubiquitin. Datum points represent single assay determinations, and complete data sets were evaluated by non-linear regression analysis using GraFit version 5.0 (Erithicus). […]

E6APY533A = biological target: T2, E6APY533A (Homo sapiens, UniProt Q05086, Y556A); assay: E6 rescue of 125I-polyubiquitin chain formation by E6APY533A; format: biochemical; settings: 20 nM E6 protein
T2 construct: made in house; host or cells: E. coli
T2 sequence (Q05086 1-872 isoform Q05086-3 Y553A): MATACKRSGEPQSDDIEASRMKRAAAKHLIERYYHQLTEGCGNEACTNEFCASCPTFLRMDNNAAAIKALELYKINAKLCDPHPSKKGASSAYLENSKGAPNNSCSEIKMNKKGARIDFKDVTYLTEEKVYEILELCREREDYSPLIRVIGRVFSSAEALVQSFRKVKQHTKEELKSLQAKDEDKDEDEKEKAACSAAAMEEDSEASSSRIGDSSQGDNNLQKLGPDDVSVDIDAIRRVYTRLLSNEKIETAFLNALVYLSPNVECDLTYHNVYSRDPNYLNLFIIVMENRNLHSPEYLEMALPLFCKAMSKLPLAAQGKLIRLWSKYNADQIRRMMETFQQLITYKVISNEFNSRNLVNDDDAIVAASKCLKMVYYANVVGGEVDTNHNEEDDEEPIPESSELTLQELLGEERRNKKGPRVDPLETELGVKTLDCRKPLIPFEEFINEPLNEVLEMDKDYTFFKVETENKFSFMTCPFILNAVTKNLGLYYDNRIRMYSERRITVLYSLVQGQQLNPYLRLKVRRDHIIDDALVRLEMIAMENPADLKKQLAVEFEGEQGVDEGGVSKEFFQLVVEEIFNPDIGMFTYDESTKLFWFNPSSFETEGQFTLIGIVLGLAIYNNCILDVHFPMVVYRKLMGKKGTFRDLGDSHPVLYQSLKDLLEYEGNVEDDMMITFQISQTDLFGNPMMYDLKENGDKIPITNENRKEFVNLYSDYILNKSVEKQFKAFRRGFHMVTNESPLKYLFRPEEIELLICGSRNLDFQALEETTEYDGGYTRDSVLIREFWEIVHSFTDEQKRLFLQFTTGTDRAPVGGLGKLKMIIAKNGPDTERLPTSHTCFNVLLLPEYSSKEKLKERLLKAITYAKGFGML
Protocol: as §1, §2

B1: E6 protein: recombinant human papilloma virus 16 E6 protein, 158 amino acids (protein)
chain: MHQKRTAMFQDPQERPRKLPQLCTELQTTIHDIILECVYCKQQLLRREVYDFAFRDLCIVYRDGNPYAVCDKCLKFYSKISEYRHYCYSLYGTTLEQQYNKPLCDLLIRCINCQKPLCPEEKQRHLDKKQRFHNIRGRWTGRCMSCCRSSRTRRETQL
B1 was tested, and the “effect on E6APF727D” value (E6APF727D) was “significantly enhanced; also recorded: rescues the kcat defect” and the increase in rate (E6APY533A) was 8 fold.
